Experimental data taken from patent US20250011397A1 (HOSPITAL FOR SICK CHILDREN, published 2025).
Several values for one entry are separate records, joined by “and”; a condition that tells them apart may be missing. Identical values can stand only once. Like-named read-outs stand apart in the source and are kept apart here.

Legend:
[1] = molecular target: T1, SARS-CoV-2 Spike on HIV-based pseudotyped virus (Spike plasmid BEI NR52310) (SARS-CoV-2, UniProt P0DTC2 14-1273); assay: cell-based or functional assay
[2] = molecular target: Spike of authentic SARS-CoV-2/SB2-P4-PB virus (SARS-CoV-2, UniProt P0DTC2 14-1273); assay: cell-based or functional assay
[3] = molecular target: T1, SARS-CoV-2 Spike on HIV-based …; assay: cell-based or functional assay; remark: listed apart in the source
[4] = molecular target: T1, SARS-CoV-2 Spike on HIV-based …; assay: cell-based or functional assay; remark: listed apart in the source
mouse FcRn [5] = molecular target: T2, mouse FcRn (mouse, UniProt Q61559 22-297; P01887 21-119)
T2 sequence (looked up) 1: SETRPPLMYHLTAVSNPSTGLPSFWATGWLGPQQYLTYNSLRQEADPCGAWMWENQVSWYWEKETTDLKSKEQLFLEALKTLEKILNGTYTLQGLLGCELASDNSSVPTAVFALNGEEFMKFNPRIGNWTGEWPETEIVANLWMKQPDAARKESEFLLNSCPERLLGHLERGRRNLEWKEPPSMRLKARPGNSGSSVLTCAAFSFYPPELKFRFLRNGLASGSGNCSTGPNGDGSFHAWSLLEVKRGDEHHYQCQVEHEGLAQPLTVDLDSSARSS
T2 sequence (looked up) 2: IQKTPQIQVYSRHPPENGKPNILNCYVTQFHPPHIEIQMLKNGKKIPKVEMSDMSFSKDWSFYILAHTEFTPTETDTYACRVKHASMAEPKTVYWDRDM

mouse FcγRI = molecular target: T3, mouse FcγRI (mouse, UniProt P26151 25-297)
T3 sequence (looked up): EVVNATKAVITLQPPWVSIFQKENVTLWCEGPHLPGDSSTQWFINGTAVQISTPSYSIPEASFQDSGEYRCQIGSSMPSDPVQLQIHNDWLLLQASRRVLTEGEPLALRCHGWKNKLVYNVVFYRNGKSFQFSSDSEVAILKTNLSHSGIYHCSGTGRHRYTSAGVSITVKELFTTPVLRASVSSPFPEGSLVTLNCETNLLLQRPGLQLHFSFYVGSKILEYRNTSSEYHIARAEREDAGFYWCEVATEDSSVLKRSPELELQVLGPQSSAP

mouse FcRn [6] = molecular target: T2, mouse FcRn; assay: pH 5.6

Row | Binder | IC50 SARS-CoV2 PsV (µg/mL), IgG [1] | IC50 SARS-CoV2/SB2-P4-PB (µg/mL), IgG [2] | Median IC50 (PsV neutralization) [3] | other results
1 | mAb 324 (antibody, V domains shown, also called IgG 324) VH: QVQLVQSGAEVKKPGASVKVSCKASGGTFNNYGISWVRQAPGQGLEWMGWMNPNSGNTGYAQKFQGRVTMTRDTSTSTVYMELSSLRSEDTAVYYCARVGDYGDYIVSPFDLWGRGTLVTVSS VL: DIQMTQSPSSLSASVGDRVTITCRASQSITTYLNWYQQKPGKAPKLLIYDASNLETGVPSRFSGSGSGTDFTLTISSLQPEDFATYYCQQSYSTPPTFGQGTKVEIKR | 0.78 µg/mL | 21 µg/mL | 0.78 µg/mL and 5.2 nM | –
2 | 4A8 IgG (antibody, V domains shown, also called IgG 4A8) VH: EVQLVESGAEVKKPGASVKVSCKVSGYTLTELSMHWVRQAPGKGLEWMGGFDPEDGETMYAQKFQGRVTMTEDTSTDTAYMELSSLRSEDTAVYYCATSTAVAGTPDLFDYYYGMDVWGQGTTVTVSS VL: EIVMTQSPLSSPVTLGQPASISCRSSQSLVHSDGNTYLSWLQQRPGQPPRLLIYKISNRFSGVPDRFSGSGAGTDFTLKISRVEAEDVGVYYCTQATQFPYTFGQGTKVDIK | – | – | – | Median IC50 (PsV neutralization) [4]: > 100 µg/mL and > 0.66 µM
3 | mAb 236 (antibody, V domains shown, also called IgG 236) VH: QVQLVQSGAEVKKPGASVKVSCKASGGTFTSYGINWVRQAPGQGLEWMGWMNPNSGNTGYAQKFQGRVTMTRDTSTSTVYMELSSLRSEDTAVYYCASRGIQLLPRGMDVWGQGTTVTVSS VL: not shown | 0.057 µg/mL | 5.5 µg/mL | 0.057 µg/mL and 0.38 nM | –
4 | HD37 (anti-hCD19) mouse IgG2a, parental IgG (antibody, also called mIgG2a control; HD37 single chain IgG2a) DILLTQTPASLAVSLGQRATISCKASQSVDYDGDSYLNWYQQIPGQPPKLLIYDASNLVSGIPPRFSGSGSGTDFTLNIHPVEKVDAATYHCQQSTEDPWTFGGGTKLEIKRADAAPTVSIFPPSSEQLTSGGASVVCFLNNFYPKDINVKWKIDGSERQNGVLNSWTDQDSKDSTYSMSSTLTLTKDEYERHNSYTCEATHKTSTSPIVKSFNRNECGGSSGSGSGSTGTSSSGTGTSAGTTGTSASTSGSGSGGGGGSGGGGSAGGTATAGASSGSGSSGSSSSGGTGTGQVQLQQSGAELVRPGSSVKISCKASGYAFSSYWMNWVKQRPGQGLEWIGQIWPGDGDTNYNGKFKGKATLTADESSSTAYMQLSSLASEDSAVYFCARRETTTVGRYYYAMDYWGQGTSVTVSSSQSFPNVFPLVSCESPLSDKNLVAMGCLARDFLPSTISFTWNYQNNTEVIQGIRTFPTLRTGGKYLATSQVLLSPKSILEGSDEYLVCKIHYGGKNRDLHVPIPSKPCPPCKCPAPNLLGGPSVFIFPPKIKDVLMISLSPIVTCVVVDVSEDDPDVQISWFVNNVEVHTAQTQTHREDYNSTLRVVSALPIQHQDWMSGKEFKCKVNNKDLPAPIERTISKPKGSVRAPQVYVLPPPEEEMTKKQVTLTCMVTDFMPEDIYVEWTNNGKTELNYKNTEPVLDSDGSYFMYSKLRVEKKNWVERNSYSCSVVHEGLHNHHTTKSFSRTPGK | – | – | – | kon (mouse FcRn [5]): 116000 M⁻¹ s⁻¹; Kd (mouse FcγRI): 8.63 nM; koff (mouse FcγRI): 0.000451 s⁻¹; kon (mouse FcγRI): 52200 M⁻¹ s⁻¹; Kd (mouse FcRn [6]): 1.06 nM; koff (mouse FcRn [6]): 0.000123 s⁻¹
5 | mAb 52 (antibody, V domains shown, also called IgG 52; antibody 52) VH: QVQLVQSGAEVKKPGSSVKVSCKASGYTFTSYGISWVRQAPGQGLEWMGGIIPMFGTTNYAQKFQGRVTITADKSTSTAYMELSSLRSEDTAVYYCARDRGDTIDYWGQGTLVTVSS VL: DIQMTQSPSSLSASVGDRVTITCRASQGISNNLNWYQQKPGKAPKLLIYAASSLESGVPSRFSGSGSGTDFTLTISSLQPEDFATYYCQQGNGFPLTFGPGTKVDIKR | 0.55 µg/mL | 6.2 µg/mL | 0.61 µg/mL and 4.1 nM | –
